Laboratory results taken from patent US20240385190A1 (EISAI R AND D MANAGEMENT, published 2024).
Values joined by “and” are separate entries in the source; they are usually repeats but may differ in a detail not shown here. Equal entries are not always repeated.

What was measured:
[1] = target: T1, human EphA4 extracellular domain-MBP-His protein (human); experiment: ELISA
T1 construct: also called human EphA4 extracellular domain (ECD); Human EphA4 extracellular domain-MBP-His 10
Procedure: (§1) For the anti-human EphA4 monoclonal antibodies produced in Example 1, evaluation of binding activity to various EphA4 was performed according to the following steps. Mouse anti-6-His antibodies (R&D) were coated on the wells of a 96-well plate (Thermo […]). After incubating at room temperature for 1 hour, the wells were blocked at room temperature for 1 hour with 1% Block Ace (KAC). After washing three times with 0.02% Tween 20/PBS, the wells were seeded with human EphA4 extracellular domain-MBP-His protein, human EphA4 ligand binding domain-MBP-His protein, human EphA4 fibronectin III-type domain 1-MBP-His protein, human EphA4 fibronectin III-type domain 2-MBP-His protein, or MBP-His protein (final concentration 1 nM), and this was incubated at room temperature for 1 hour. After washing three times, anti-human EphA4 rabbit monoclonal antibody (10 pg/mL) was added, and this was incubated at room temperature for 1 hour. After washing three times, horseradish peroxidase labeled goat anti-rabbit IgG polyclonal antibody (abcam) was added, and this was incubated at room temperature for 1 hour. After washing three times, TMBZ (3,3′,5,5′-tetramethylbenzidine, KPL) solution was added to the wells, and this was incubated for four and a half minutes at room temperature. Equal amounts of quenching solution (2 N H₂SO₄, FUJIFILM Wako) were added to the wells, and absorbance at 450 nm and 650 nm were read with a microplate reader (Thermo […]).

[2] = target: human EphA4 ligand binding domain-MBP-His protein (human, UniProt P54764 20-209; P0AEX9 29-392 = MBP); experiment: ELISA
Procedure: as §1

FN1 = experiment: ELISA
Procedure: as §1

[3] = target: T2, human EphA4 extracellular domain-SEAP-His protein (human); experiment: ELISA
T2 sequence (chain, as listed by the source limits assumed): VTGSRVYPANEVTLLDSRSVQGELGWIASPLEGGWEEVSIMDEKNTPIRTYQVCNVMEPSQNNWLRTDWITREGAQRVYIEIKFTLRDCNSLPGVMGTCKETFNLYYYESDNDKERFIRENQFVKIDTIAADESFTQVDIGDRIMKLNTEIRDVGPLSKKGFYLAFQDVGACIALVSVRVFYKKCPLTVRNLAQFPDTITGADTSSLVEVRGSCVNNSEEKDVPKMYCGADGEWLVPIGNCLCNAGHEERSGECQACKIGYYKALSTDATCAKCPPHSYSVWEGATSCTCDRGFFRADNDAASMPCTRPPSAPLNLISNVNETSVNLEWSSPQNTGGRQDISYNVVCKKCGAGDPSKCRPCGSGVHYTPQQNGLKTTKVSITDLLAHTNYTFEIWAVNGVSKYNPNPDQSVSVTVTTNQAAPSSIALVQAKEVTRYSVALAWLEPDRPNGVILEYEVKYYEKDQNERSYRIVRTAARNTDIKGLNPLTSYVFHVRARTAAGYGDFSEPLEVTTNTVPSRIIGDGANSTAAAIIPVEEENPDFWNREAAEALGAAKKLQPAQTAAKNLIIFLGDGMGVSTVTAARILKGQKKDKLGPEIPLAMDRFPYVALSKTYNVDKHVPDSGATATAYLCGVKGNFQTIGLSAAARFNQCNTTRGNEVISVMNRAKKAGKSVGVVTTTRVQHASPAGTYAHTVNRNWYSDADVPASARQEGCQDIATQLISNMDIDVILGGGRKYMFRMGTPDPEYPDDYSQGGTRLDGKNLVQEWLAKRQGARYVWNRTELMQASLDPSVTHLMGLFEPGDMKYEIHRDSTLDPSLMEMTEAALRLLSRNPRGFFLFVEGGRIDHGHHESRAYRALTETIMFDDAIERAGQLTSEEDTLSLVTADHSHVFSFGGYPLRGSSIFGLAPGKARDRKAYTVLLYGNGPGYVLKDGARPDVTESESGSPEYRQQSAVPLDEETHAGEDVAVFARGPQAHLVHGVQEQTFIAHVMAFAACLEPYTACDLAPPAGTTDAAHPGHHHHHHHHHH
Procedure: (§2) For the anti-human EphA4 monoclonal antibodies produced in Example 1, evaluation of binding activity to various EphA4 was performed according to the following steps. Mouse anti-6-His antibodies (R&D) were coated on the wells of a 96-well plate (Thermo […]). After incubating at room temperature for 1 hour, the wells were blocked at 4° C. overnight with 1% Block Ace (KAC). After washing three times with 0.02% Tween 20/PBS, the wells were seeded with mouse EphA4 extracellular domain-SEAP-His protein, rat EphA4 extracellular domain-SEAP-His protein, rabbit EphA4 extracellular domain-SEAP-His protein, monkey EphA4 extracellular domain-SEAP-His protein, human EphA4 extracellular domain-SEAP-His protein, or SEAP-His protein (final concentration 1 nM), and this was incubated at room temperature for 1 hour. After washing three times, anti-human EphA4 rabbit monoclonal antibody (10 pg/mL) was added, and this was incubated at room temperature for about 1 hour. After washing three times, horseradish peroxidase labeled goat anti-rabbit IgG polyclonal antibody (abcam) was added, and this was incubated at room temperature for 1 hour. After washing three times, TMBZ (3,3′,5,5′-tetramethylbenzidine, KPL) solution was added to the wells, and this was incubated for 3 minutes at room temperature. Equal amounts of quenching solution (2 N H₂SO₄, FUJIFILM Wako) were added to the wells, and absorbance at 450 nm and 650 nm were read with a microplate reader (Thermo […]).

Rat = target: T3, Rat; experiment: ELISA
T3 construct: also called rat EphA4 extracellular domain-SEAP-His protein
Procedure: as §2

Rabbit = target: T4, Rabbit; experiment: ELISA
T4 construct: also called rabbit EphA4 extracellular domain-SEAP-His protein
Procedure: as §2

SEAP = target: T5, SEAP; experiment: ELISA
T5 construct: negative control antigen; also called SEAP-His protein
Procedure: as §2

[4] = target: T6, monkey EphA4 extracellular domain-SEAP-His protein (monkey); experiment: ELISA
T6 construct: the fusion as a whole has none; not shown: SEAP-His part
T6 sequence (chain, as listed by the source): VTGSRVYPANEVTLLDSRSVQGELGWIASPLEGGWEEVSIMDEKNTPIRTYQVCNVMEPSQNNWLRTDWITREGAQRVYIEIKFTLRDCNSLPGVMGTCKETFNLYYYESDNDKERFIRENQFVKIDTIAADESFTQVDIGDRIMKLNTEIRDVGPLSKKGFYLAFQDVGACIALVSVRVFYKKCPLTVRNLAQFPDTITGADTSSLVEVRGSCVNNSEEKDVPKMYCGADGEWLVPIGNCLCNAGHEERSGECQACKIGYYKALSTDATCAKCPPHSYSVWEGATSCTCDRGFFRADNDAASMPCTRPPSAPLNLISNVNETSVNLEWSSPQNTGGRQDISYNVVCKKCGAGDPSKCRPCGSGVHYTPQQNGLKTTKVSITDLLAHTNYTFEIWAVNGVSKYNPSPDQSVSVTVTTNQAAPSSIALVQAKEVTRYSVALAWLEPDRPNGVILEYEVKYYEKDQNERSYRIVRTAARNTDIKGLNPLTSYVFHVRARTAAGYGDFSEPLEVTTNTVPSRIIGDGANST
Procedure: as §2

[5] = target: T1, human EphA4 extracellular …; experiment: SPR Biacore T200, EphA4 ECD-MBP-His captured by anti-His antibody, antibody as analyte, 1:1 model, mean of three
Procedure: (§3) The binding affinity of KPEP11_04, KPEP11_08, KPEP11_10, and KPEP11_18 against human EphA4 was determined by the surface plasmon resonance method (SPR method) employing Biacore T200 (Cytiva). First, an anti-His antibody (Cytiva, 28-9950-56) was diluted to 10 μg/mL with the immobilizing buffer (10 mM sodium acetate, pH 4.5), and immobilized onto a sensor chip CM5 according to the protocol attached to Biacore T200. Immobilization was performed by the amine coupling method employing N-hydroxysuccinimide (NHS) and N-ethyl-N′-(3-dimethylaminopropyl) carbodiimide hydrochloride salt (EDC), and ethanolamine was employed for blocking (sensor chips or immobilizing reagents were all from Cytiva). Human EphA4 extracellular domain-MBP-His 10 was diluted with a running buffer HBS-EP+ (Cytiva), and pumped onto a flow cell for 120 seconds to allow capturing (captured amount of about 3 RU). […] At the end of each observation, 10 mM glycine hydrochloric acid pH 1.5 (60 seconds) and 3 M MgCl₂ (30 seconds) were added to regenerate the sensor chips. Fitting analysis by the 1:1 binding model employing the BIA evaluation software attached to the system was performed against the binding reaction curves obtained to calculate the binding affinity against human EphA4 (KD=kd/ka). The experiment described above was carried out three times, and the mean was calculated for each parameter.

[6] = target: T2, human EphA4 extracellular …; experiment: ELISA; remark: listed apart in the source
[7] = target: T6, monkey EphA4 extracellular …; experiment: ELISA; remark: listed apart in the source
[8] = target: T1, human EphA4 extracellular …; experiment: SPR Biacore T200, EphA4 ECD-MBP-His captured by anti-His antibody, antibody as analyte, 1:1 model
Procedure: as §3

FN2 = experiment: ELISA
Procedure: as §1

MBP = experiment: ELISA
Procedure: as §1

Mouse = target: T7, Mouse; experiment: ELISA
T7 construct: also called mouse EphA4 extracellular domain-SEAP-His protein
Procedure: as §2

[9] = target: T1, human EphA4 extracellular …; experiment: SPR Biacore T200, EphA4 ECD-MBP-His captured by anti-His antibody, antibody as analyte, 1:1 model, mean of three (exponent printed as -90, read as -09); mean of three experiments
Procedure: as §3

Binder | absorbance [1] | absorbance [2] | absorbance (FN1) | absorbance [3] | absorbance (Rat) | absorbance (Rabbit) | absorbance (SEAP) | absorbance [4] | Kd [5] [nM] | koff [5] [s⁻¹] | EC50 (read off the curve) [6] [nM] | EC50 (read off the curve) [7] [nM] | Kd [8] | koff [8] | kon [8] | absorbance (FN2) | absorbance (MBP) | absorbance (Mouse) | kon [5] [M⁻¹ s⁻¹] | Kd [9] [nM]
KPEP11_18 (antibody, V domains shown, Rabbit IgG/kappa; Used coated or HRP-labeled in the sandwich ELISAs; also called anti-human EphA4 rabbit monoclonal antibody KPEP11_18; HRP-labeled KPEP11_18) VH: QSLEESGGRLVTPGTPLTLTCTISGFSLSSFYINWVRQAPGRGLEWIGIIYPDIDATDYASWVKGRFTISKTSTTVDLKITSPTTEDTATYFCARSDVDYYTTRLDLWGQGTLVTVSS VL: DPMMTQTASPVSAAVGGTVSISCQSNKSVYSNWLSWFQQKPGQPPKLLIYGASTLASGVPSRFKGSGSGTQFTLTVSDVQCDDAATYFCLGGYRDNSDNAFGGGTEVVVKG | 1.42 | 1.43 | 0.222 | 1.23 | 0.067 | 0.059 | 0.054 | 1.18 | 0.389 | 0.00127 | ~0.01 | ~0.01 | 0.416 nM and 0.382 nM | 0.00128 s⁻¹ and 0.00137 s⁻¹ and 0.00127 s⁻¹ | 3.06e+06 M⁻¹ s⁻¹ and 3.32e+06 M⁻¹ s⁻¹ and 3.44e+06 M⁻¹ s⁻¹ |  |  |  |  | 
KPEP11_08 (antibody, Rabbit IgG/kappa; Used HRP-labeled as detection antibody in the sandwich ELISAs; also called anti-human EphA4 rabbit monoclonal antibody KPEP11_08; HRP-labeled KPEP11_08) heavy: QSLEESGGRLVTPGTPLTLTCTVSGFSLSSYHMSWVRQAPGKGLEWIGIIYRSGNTYYANWAKGRFTISKTSTTVDLKITSPTTEDTATYFCARESSTFYGMDLWGPGTLVTVSSGAPKAPSVFPLAPCCGDTPSSTVTLGCLVKGYLPEPVTVTWNSGTLTNGVRTFPSVRQSSGLYSLSSVVSVTSSSQPVTCNVAHPATNTKVDKTVAPSTCSKPTCPPPELLGGPSVFIFPPKPKDTLMISRTPEVTCVVVDVSQDDPEVQFTWYINNEQVRTARPPLREQQFNSTIRVVSTLPITHQDWLRGKEFKCKVHNKALPAPIEKTISKARGQPLEPKVYTMGPPREELSSRSVSLTCMINGFYPSDISVEWEKNGKAEDNYKTTPAVLDSDGSYFLYNKLSVPTSEWQRGDVFTCSVMHEALHNHYTQKSISRSPGK light: DPVLTQTASSVSAAVGGTVTINCQASQSVYGNNELAWYQQKPGQPPKLLIYTASSLASGVPSRFKGSGSGTEFTLTISDLECADAATYYCLGYKSDDYTFGGGTEVVVKGAPVAPTVLIFPPAADQVATGTVTIVCVANKYFPDVTVTWEVDGTTQTTGIENSKTPQNSADCTYNLSSTLTLTSTQYNSHKEYTCKVTQGTTSVVQSFNRGDC | 1.31 | 0.292 | 0.283 | 1.15 | 0.065 | 0.057 | 0.072 |  | 1.51 | 0.00217 | ~0.02 | ~0.02 | 1.51 nM and 1.67 nM and 1.36 nM | 0.00214 s⁻¹ | 1.42e+06 M⁻¹ s⁻¹ and 1.24e+06 M⁻¹ s⁻¹ and 1.58e+06 M⁻¹ s⁻¹ | 0.265 | 0.3 | 0.071 | 1.44e+06 | 
KPEP11_10 (antibody, Rabbit IgG/kappa; Used coated or HRP-labeled in the sandwich ELISAs; also called anti-human EphA4 rabbit monoclonal antibody KPEP11_10; HRP-labeled KPEP11_10) heavy: QSLEESGGRLVTPGTPLTLTCTVSGFSLSSYHMSWVRQAPGKGLEWIGIIYRSGNTYYANWAKGRFTISKTSTTVDLKITSPTTEDTATYFCARESSTFYGMDLWGPGTLVTVSSGAPKAPSVFPLAPCCGDTPSSTVTLGCLVKGYLPEPVTVTWNSGTLTNGVRTFPSVRQSSGLYSLSSVVSVTSSSQPVTCNVAHPATNTKVDKTVAPSTCSKPTCPPPELLGGPSVFIFPPKPKDTLMISRTPEVTCVVVDVSQDDPEVQFTWYINNEQVRTARPPLREQQFNSTIRVVSTLPITHQDWLRGKEFKCKVHNKALPAPIEKTISKARGQPLEPKVYTMGPPREELSSRSVSLTCMINGFYPSDISVEWEKNGKAEDNYKTTPAVLDSDGSYFLYNKLSVPTSEWQRGDVFTCSVMHEALHNHYTQKSISRSPGK light: AIKMTQTPSSVSAAVGGTVTINCQASQSVYGNNELAWYQQKPGQPPKLLIYTASSLASGVPSRFKGSGSGTEFTLTISDLECADAATYYCLGYKSDDYTFGGGTEVVVKGAPVAPTVLIFPPAADQVATGTVTIVCVANKYFPDVTVTWEVDGTTQTTGIENSKTPQNSADCTYNLSSTLTLTSTQYNSHKEYTCKVTQGTTSVVQSFNRGDC | 1.35 | 0.34 | 0.329 | 1.17 | 0.087 | 0.091 | 0.087 | 1.11 | 1.3 | 0.00196 | ~0.02 | ~0.02 | 1.36 nM and 1.23 nM | 0.00196 s⁻¹ and 0.00198 s⁻¹ | 1.44e+06 M⁻¹ s⁻¹ and 1.58e+06 M⁻¹ s⁻¹ | 0.325 | 0.334 |  | 1.52e+06 | 
KPEP11_04 (antibody, V domains shown, Rabbit IgG/kappa; Used HRP-labeled as detection antibody in the sandwich ELISAs; also called anti-human EphA4 rabbit monoclonal antibody KPEP11_04; HRP-labeled KPEP11_04) VH: QEQLKESGGRLVTPGGSLTLTCTVSGIDLSSYAMSWVRQAPEKGLEWIGFINMYGTYYASWAKGRFTISRTSTTVDLKVTSLTTEDTATYFCVRGGRSPDYDIVSGDIWGPGTLVTVSS VL: YVMMTQTPSSVSEPVGGTVTIKCQASQNIYNSLAWYQQKPGQRPKLLIADASELASGVPQRFSGSGSGTQFTLTISDLECADAATYYCQSSSAGDSYVGGFGGGTEVVVKG | 1.41 | 1.33 | 0.225 | 1.26 | 0.044 | 0.039 | 0.05 | 1.21 |  | 0.00389 | ~0.01 | ~0.01 | 1.72 nM and 2.12 nM and 1.87 nM | 0.004 s⁻¹ and 0.00378 s⁻¹ and 0.00389 s⁻¹ | 2.33e+06 M⁻¹ s⁻¹ and 1.78e+06 M⁻¹ s⁻¹ and 2.08e+06 M⁻¹ s⁻¹ | 0.227 | 0.267 | 0.044 | 2.06e+06 | 1.9
